Measured values from patent US20040018198A1 (Amgen, published 2004).

Columns and labels:
[1] = target: CA IX catalytic domain protein (CA9-CD) (human, UniProt Q16790 138-391); test: ELISA on CA9-CD (catalytic domain)
[2] = target: CA-IX-His-ECD (his-V5 tagged version of the CA IX protein, extracellular domain) (human, UniProt Q16790 38-414); test: ELISA on CA-IX-His-ECD

| Binder | OD [1] | OD [2] |
| --- | --- | --- |
| AB-MN-21.2.1 (antibody, human IgG1, V domains shown, also called AX014H21-2-1) VH: QVQLQESGPGLVKPSQTLSLTCTVSGGSISSGGYYWNWIRQHPGKGLEWIGYIYYSGSTYYNPSLKSRVTISVDTSKNQFSLKLSSVTAADTAVYYCARTYYDILTGYPDAFDIWGQGTMVTVSS VL: DIQMTQSPSSLSASVGDRVTITCRASQDIRNDLGWYQQKPGKAPKRLICAASSLQSGVPSSFSGSGSGTEFTLTISSLQPEDFATYYCLQHNSYPWTFGQGTKVEIK | 2.48 OD | 1.21 OD |
| AB-MN-22.14 (antibody, human IgG2, V domains shown, also called AX014H22-14) VH: QVQLQESGPGLVKPSETLSLTCTVSGGSVISGGYYWSWIRQPPGKGLEWIGYIYYSGSSNYNPSLKSRVTISVDASKNQFSLRLSSVTAADTAVYYCARSMVRGVSFDYWGQGTLVTVSS VL: DIQMTQSPSSLSASVGDRVTITCRASQGIRNDLGWYQQKPGKAPKRLIYAASSLQSGVPSRFSGSGSGTEFTLTISSLQPEDFATYYCLQHNSYPLTFGGGTKVEIK | 2.03 OD | 0.763 OD |
| AB-MN-22.18 (antibody, human IgG2, V domains shown, also called AX014H22-18) VH: QVQLQESGPGLVKPSQTLSLTCTVSGGSISSGGYYWNWIRQHPGKGLEWIGYIYYSGSTYYNPSLKSRVTISVDTSKNQFSLKLSSVTAADTAVYYCARTYYDILTGYPDAFDIWGQGTMVTVSS VL: DIQMTQSPSSLSASVGDRVTITCRASQDIRNDLGWYQQKPGKAPKRLICAASSLQSGVPSSFSGSGSGTEFTLTISSLQPEDFATYYCLQHNSYPWTFGQGTKVEIK | 2.75 OD | 2.23 OD |
| AB-MN-22.28.1 (antibody, human IgG2, V domains shown, the numbering there is inconsistent; also called AX014H22-28-1) VH: QVQLEQSGGGLVQPGGSLRLSCAASGFTFSSYAMSWVRQAPGKGLEWVSAISGSGGGTYYADSVKGRFTISRDNSKNTLYLQMNSLRAEDTAVYYCASGRYYYYYDMDVWGQGTTVTVSS VL: DIRLTQSPSSLSASVGDRVTITCRASQGIRNDLGWYQQKPGKAPKRLIYAASSLQSGVPSRFSGSGSGTEFTLTISSLQPEDFATYYCLQHNSYPLTFGGGTKVEIK | 2.54 OD | 0.404 OD |
| AB-MN-22.25 (antibody, human IgG2, V domains shown, also called AX014H22-25) VH: QLQLQESGPGLVKPSETLSLTCTVSDGSISSSSYYWGWIRQPPGKGLEWIGSIYYSGSTYYNPSLKSRVTISVDTSKNQFSLKLSSVTAADTAVYYCARHGSFFDYWGQGTLVTVSS VL: DIQMTQSPSSLSASVGDRVTITCRASQGIRNDLGWYQQKPGKAPKRLIYAASSLQSGVPSRFSGSGSGTEFTLTISSLQPEDFTTYYCLQYKSYPWTFGQGTKVEIK | 2.48 OD | 1.84 OD |
| AB-MN-22.20 (antibody, human IgG2, V domains shown, also called AX014H22-20) VH: QVQLQESGPGLVKPSQTLSLTCTVSGGSISSGGSYWTWIRQHPGKGLEWIGYIYYSGNTYYNPSLKSRVTISVDTSKNQFSLKLSSVTAADTAVYYCARTYYDILTGYPDAFDIWGQGTMVTVSS VL: DIQMTQSPSSLSASVGDRVTITCRASQGIRNDLGWYQQKPGKAPKRLIYAASSLQSGVPSRFSGSGSGTEFTLTISSLQPEDFTTYYCLQYKSYPWTFGQGTKVEIK | 2.71 OD | 1.72 OD |
| AB-MN-22.13.1 (antibody, human IgG2, V domains shown, also called AX014H22-13-1) VH: RVQLVESGGGLVQPGGSLRLSCAASGFTFSRYSMNWVRQAPGKGLEWVSYISSSSSTIYYADSVKGRFTISRDSAKNSLYLQMNSLRDEDTAVYYCARSLRSGGMDVWGQGTTVTVSS VL: not shown | 0.118 OD | 1.85 OD |
| AB-MN-21.6.1 (antibody, human IgG1, V domains shown, also called AX014H21-6-1) VH: QVQLQESGPGLVKPSQTLSLTCTVSGGSISSGGYYWSWIRQHPGKGLEWIGYIYYSGSTYYNPSLKSRVTISVDTSKNQFSLKLSSVTAADTAVYYCARAGKYYGSGSYLDYWGQGTLVTVSS VL: not shown | 2.25 OD | 0.618 OD |
| AB-MN-21.5.2 (antibody, V domains shown, also called 21.5.2 n; AX014H21-5-2) VH: QVQLEQSGPGLVKPSQTLSLTCTVSGGSISSGGRYWSWIRQHPGKGLEWIGYIYYSGSTYYNPSLKSRVTISIDTSKNQFSLKLSSVTAADTAVYYCARAGTYYGSGSYLDYWGQGTLVTVSS VL: not shown | 2.43 OD | 0.893 OD |
| AB-MN-21.17.1 (antibody, human IgG1, V domains shown, also called 21.17.1 I; AX014H21-17-1) VH: QVQLQESGPGLVKPSETLSLTCTVSGGSISSYYWSWIRQPAGKGLEWIGRIYTSGSTNYNPSLKSRVTMSVDTSKNQFSLKLSSVTAADTAVYYCARDGQWLEDYGMDVWGQGTTVTV VL: EIVLTQSPGTLSLSPGERATLSCWASQSVFSNYLAWYQQKPGQAPRLLIYGASSRATGIPDRFSGSGSGTDFPLTISRLEPEDFAVYYCQQYGSSPLTFGGGTKVEIK | 2.66 OD | 1.85 OD |
| AB-MN-22.7 (antibody, human IgG2, V domains shown, also called AX014H22-7) VH: QVQLVESGGGVVQPGRSLRLSCAASGFTFSSYGMHWVRQAPGKGLEWVAVISYDGSNKYYADSVKGRFTFSRDNSKNTLYLQMNSLRAEDTAVYYCARRGITMVRGAPSYYGMDVWGQGTTVTVSS VL: not shown | 0.715 OD | 0.097 OD |
| AB-MN-21.10.1 (antibody, human IgG1, V domains shown, also called 21.10.1 g; AX014H21-10-1) VH: QLEQSGPGLVKPSETLSLTCTVSDGSISSSSYYWGWIRQPPGKGLEWIGSIYYSGSTYYNPSLKSRVTISVDTSKNQFSLKLSSVTAADTAVYYCARHGSFFDYWGQGTLVTVSS VL: not shown | – | 0.059 OD |
| AB-MN-XG1-080 (antibody, human IgG1, V domains shown, also called MN80) VH: QVQLQESGPGLVKPSETLSLTCTVSGGSISSYYWSWIRQPPGKGLEWIGYIYYSGSTNYNPSLKSRVTISVDTSKNQFSLKLSSVTAADTAVYYCARDTRTIFGVVSGMDVWGQGTTVTVSS VL: EIVLTQSPGTLSLSPGERATLSCRASQSVYSSYLAWYQQKPGQAPRLLIYGASSRAPGIPDRFSGSGSGTDFTLTISRLEPEDFAVYYCQHYGRSLTFGGGTKVEIK | 2.85 OD | 2.71 OD |
| AB-MN-22.19 (antibody, human IgG2, V domains shown, also called AX014H22-19) VH: QVQLQESGPGLVKPSETLSLTCTVSGGSISFYYWNWIRQPAGKGLEWVGRIYTSGSTNYNPSLKSRVTMSVDTSKNQFSLKLSSVTAADTAVYYCARGGFLEWDYYYGMDVWGQGTTVTVSS VL: EIVLTQSPGTLSLSPGERATLSCRASQSVSVTYLAWYQQKPGQAPRLLIYGASSRATGIPDRFSGSGSGTDFTLTISRLEPEDFAVYYCQQYGSSVTFGGGTKVEIK | 3.01 OD | 2.12 OD |
| AB-MN-XG1-141 (antibody, human IgG1, V domains shown, also called MN141) VH: QVQLQESGPGLVKPSETLSLTCSVSGGSISSYYWSWIRQPPGKGLEWIGYIYYSGSTNYNPSLKSRVTISVDTSNNHFSLKLSSVTAADTAVYYCARDTRTIFGVVSGMDVWGQGTTVTVSS VL: EIVLTQSPGTLSLSPGERATLSCRTSQTVYSTYLAWYQQKPGQAPRLLIYGASSRATGIPDRFSGSGSGTDFTLTISRLEPEDFAVFYCQHYGRSLTFGGGTKVEIK | 2.56 OD | 2.56 OD |
| AB-MN-22.8.1 (antibody, human IgG2, V domains shown, also called AX014H22-8-1) VH: SGPGLVKPSETLSLTCTVSGGSISSYYWSWIRQPPGKGLEWIGYIYYSGSTNYNPSLKSRVTISVDTSKNQFSLKLTSVTAADTAVYYCARDQHSSSVYYYYYGMDVWGQGTTVTVSS VL: ETQLTQSPGTLSLSPGERATLSCRASQSIYINYLAWYQQKPGQAPRLLISGASSRATGIPDRFSGSGSGTDFTLTISRLEPEDFAVYYCQQYGRSLTFGGGTEVEIKR | 2.77 OD | 2.41 OD |
| AB-MN-22.15 (antibody, human IgG2, V domains shown, also called AX014H22-15) VH: QVQLQESGPGLVKPSQTLSLTCTVSGGSISSGGYYWSWIRQHPGKGLEWIGYIYYSGYTYYNPSLKSRVTISVDTSKNQFSLKLSSVTAADTAVYYCARDRYYDILTGYYNYGMDVWGQGTTVTVSS VL: not shown | 2.53 OD | 0.831 OD |
| AB-MN-XG1-023 (antibody, human IgG1, V domains shown, also called MN23; AB-MN-XG1-23) VH: QVQLQESGPGLVKPSQTLSLTCTVSGGSISSGGYYWSWIRQHPGKGLEWIGYIYYSGSTYYNPSLKSRVTISVDTSKNQFSLKLSSVTAADTAVYYCARENYDILTGFNWFDPWGQGTLVTVSS VL: DIQMTQSPSSVSASVGDRVTITCRASQGISSWLAWYQQKPGKAPKVLIYSTSRLQSGVPSRFSGSGSGTDFTLTISSLQPEDFATYYCQQADSFRTFGQGTKVEIK | 2.42 OD | 2.22 OD |
| AB-MN-21.1.1 (antibody, human IgG1, V domains shown, also called 21.1.1 a; AX014H21-1-1) VH: QVQLQESGPGLVKPSETLSLTCTVSGGSISSYYWSWIRQPPGKGLEWIGYIYYSGSTNYNPSLKSRVTISVDTSKNQFSLKLSSVTAADTAVYYCARRGYDILTGYDYFDYWGQGTLVTVSS VL: DIQMTQSPSSVSASVGDRVTITCRASQGISIWLTWYQQKPGKAPKLLIYAASSLQSGVPSRFSGSGSGTDFTLTISSLQPEDFATYYCQQANSFPITFGQGTRLEIK | 2.5 OD | 1.64 OD |
| AB-MN-22.17 (antibody, human IgG2, V domains shown, also called AX014H22-17) VH: QVQLQESGPGLVKPSETLSLTCTVSGGSISSYYWSWIRQPPGKGLEWIGYIYYSGSTNYNPSLKSRVTISVDTSKNQFSLKLSSVTAADTAVYYCARRGYDILTGYDYFDYWGQGTLVTVSS VL: DIQMTQSPSSVSASVGDRVTITCRASQGISIWLTWYQQKPGKAPKLLIYAASSLQSGVPSRFSGSGSGTDFTLTISSLQPEDFATYYCQQANSFPITFGQGTRLEIK | 2.57 OD | 2.16 OD |
| AB-MN-22.12 (antibody, human IgG2, V domains shown, also called AX014H22-12) VH: QVQLQESGPGLVKPSETLSLTCTVSGGSISSYYWSWIRQPPGKGLEWIGYIYSSGSTNYNPSLKSRVTISVDTSKNQFSLKLSSVTAADTAVYYCARDQHSSSFYYYYYGMDVWGQGTTVTVSS VL: DIQMTQSPSSVSASVGDRVTITCRASQGISSWLAWYQQKPGKAPKLLIYAASSLQSGVPSRFSGSGSGTDFTLTISSLQPEDFATYYCQQANSFPLTFGPGTKVDIK | 2.58 OD | 2.38 OD |
| AB-MN-21.14.1 (antibody, human IgG1, V domains shown, also called 21.14.1 j; AX014H21-14-1) VH: QVQLQESGPGLVKPSETLSLTCTVSGGSISSYYWSWIRQPPGKGLEWIGYIYYSGSTNYNPSLKSRVTISVDTSKNQFSLKLSSVTAADTAVYYCARRGYDFLTGYDYFDYWGQGTLVTVSS VL: DIQMTQSPSSVSASVGDRVTITCRASQGISSWLAWFQQKPGKAPKLLIYAASSLQSGVPSRFSGSGSGTDFTLTISSLQPEDFATYYCQQANSFPITFGQGTRLEIK | 2.47 OD | 1.78 OD |
| AB-MN-XG1-051 (antibody, human IgG1, V domains shown, also called MN51; AB-MN-XG1-51) VH: EVQLVEFGGGLVKPGGSLRLSCAASGFTFSSFRMNWVRQAPGEGLEWVSSITSSSSYIYYADSVKGRFTISRDNAKNSLYLQMNSLRAEDTAVYYCARFTAMALDYWGQGTLVTVSS VL: DIQMTQSPSSLSASVGDRVTITCRASQGIFNYLAWYQQKPGKVPKLLIYAASTLQSGVPSRFSGSGSGTDFTLTISSLQPEDVAVYYCLKYNSAPWTFGQGTKVEIK | 2.88 OD | 2.47 OD |
